Assay [1] has as its target C4b (Homo sapiens (Human)) (UniProt P0C0L4).
The target in assay [2] is C3b (Homo sapiens (Human)) (UniProt P01024).
Assay [3] addresses AP C3-convertase (C3bBb) (Homo sapiens (Human)) (UniProt P01024).
Substrate in assay [4]: CP C3-convertase (C4b2a) (Homo sapiens (Human)) (UniProt P0C0L4)
For assay [5], the target named is AP C3-convertase (C3bBb) (Homo sapiens (Human)) (UniProt P01024). This is another data set of the same source.
Assay [6] has the same target. This is another data set of the same source.
Substrate in assay [7]: CP C3-convertase (C4b2a) (Homo sapiens (Human)) (UniProt P0C0L4)
This is another data set of the same source.

Like-named read-outs stand apart in the source and are kept apart here.

Sequence of C4b (Homo sapiens (Human)) (P0C0L4 757-1446 limits assumed, chain 1 of 2): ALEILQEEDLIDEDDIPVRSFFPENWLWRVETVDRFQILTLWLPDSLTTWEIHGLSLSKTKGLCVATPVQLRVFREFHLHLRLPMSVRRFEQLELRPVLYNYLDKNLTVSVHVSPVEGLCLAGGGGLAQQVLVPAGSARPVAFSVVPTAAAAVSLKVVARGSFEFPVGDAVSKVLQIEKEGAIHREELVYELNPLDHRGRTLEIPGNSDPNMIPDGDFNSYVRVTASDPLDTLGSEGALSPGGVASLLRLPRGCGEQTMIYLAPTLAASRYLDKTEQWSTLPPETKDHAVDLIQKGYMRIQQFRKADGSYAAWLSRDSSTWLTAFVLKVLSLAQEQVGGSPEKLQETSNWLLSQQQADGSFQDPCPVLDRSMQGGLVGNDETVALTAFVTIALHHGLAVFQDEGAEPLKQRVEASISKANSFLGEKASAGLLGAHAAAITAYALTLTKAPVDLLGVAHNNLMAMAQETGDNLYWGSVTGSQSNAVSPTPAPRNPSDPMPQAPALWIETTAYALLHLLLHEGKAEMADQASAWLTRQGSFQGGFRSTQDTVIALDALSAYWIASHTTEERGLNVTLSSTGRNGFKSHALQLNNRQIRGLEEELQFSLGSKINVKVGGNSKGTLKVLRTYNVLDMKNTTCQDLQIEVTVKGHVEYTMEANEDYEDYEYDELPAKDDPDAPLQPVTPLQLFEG
Sequence of C4b (Homo sapiens (Human)) (P0C0L4 20-675 limits assumed, chain 2 of 2): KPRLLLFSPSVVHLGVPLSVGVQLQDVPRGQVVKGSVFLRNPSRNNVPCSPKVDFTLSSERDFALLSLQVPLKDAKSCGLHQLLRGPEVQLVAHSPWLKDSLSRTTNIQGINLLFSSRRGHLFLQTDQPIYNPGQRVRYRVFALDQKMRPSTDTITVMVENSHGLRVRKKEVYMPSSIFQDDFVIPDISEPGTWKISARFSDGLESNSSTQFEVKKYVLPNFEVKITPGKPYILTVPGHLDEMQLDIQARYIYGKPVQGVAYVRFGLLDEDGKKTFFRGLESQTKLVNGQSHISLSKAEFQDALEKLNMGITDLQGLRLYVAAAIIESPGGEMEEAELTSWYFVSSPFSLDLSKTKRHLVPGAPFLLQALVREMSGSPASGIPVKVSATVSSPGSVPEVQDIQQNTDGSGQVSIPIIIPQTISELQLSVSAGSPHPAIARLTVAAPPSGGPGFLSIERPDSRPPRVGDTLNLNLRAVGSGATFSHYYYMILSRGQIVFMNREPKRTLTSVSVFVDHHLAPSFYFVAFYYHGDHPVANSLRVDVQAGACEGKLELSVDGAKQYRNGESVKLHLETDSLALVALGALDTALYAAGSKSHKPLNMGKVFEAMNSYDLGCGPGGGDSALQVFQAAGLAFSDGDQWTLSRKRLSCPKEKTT

B1: D2D3M3M4 (Multi-1) (protein)
chain: CEVPTRLNSASLKQPYITQNYFPVGTVVEYECRPGYRREPSLSPKLTCLQNLKWSTAVEFCKKKSCPNPGEIRNGQIDVPGGILFGATISFSCNTGYKLFGSTSSFCLISGSSVQWSDPLPICEKVLCTPPPKIKNGKHTFSEVEVFEYLDAVTYSCDPAPGPDPFSLIGESTIYCGDNSVWSRAAPECKVVKCRFPVVENGKQISGFGKKFYYKATVMFECDKGFYLDGSDTIVCDSNSTWDPPVPKCLKVL
With B1, in assay [1], the C4b CFA: time (min.) for 50% cleavage of C4b α-chain stood at 443 min. In assay [2], this molecule came in with a C3b CFA: time (min.) for 50% cleavage of C3b α′-chain of 27.3 min. The molecule also registered an AP-DAA IC50 in assay [3] of 1.9 nM. The CP-DAA IC50 in assay [4] is 22.6 nM.

B2: D2M2-4 (Tetra) (protein)
chain: CEVPTRLNSASLKQPYITQNYFPVGTVVEYECRPGYRRQPSLSPKLTCLQNLKWSTAVEFCKKKSCPNIRDPLNGQAVPANGTYEFGYQMHFICNEGYYLAGEEILYCELKGSVAIWSGKPPICEKVKCTPPPKIKNGKHTFSEVEVFEYLDAVTYSCDPAPGPDPFSLIGESTIYCGDNSVWSRAAPECKVVKCRFPVVENGKQISGFGKKFYYKATVMFECDKGFYLDGSDTIVCDSNSTWDPPVPKCLKVL
On to B2, for which the AP-DAA in assay [5] was 12.5 fold.

B3: D2M2-4 (Y101N) (protein)
chain: CEVPTRLNSASLKQPYITQNYFPVGTVVEYECRPGYRREPSLSPKLTCLQNLKWSTAVEFCKKKSCPNIRDPLNGQAVPANGTYEFGYQMHFICNEGYYLIGEEILYCELKGSVAIWSGKPPICEKVLCTPPPKIKNGKHTFSEVEVFEYLDAVTYSCDPAPGPDPFSLIGESTIYCGDNSVWSRAAPECKVVKCRFPVVENGKQISGFGKKFYYKATVMFECDKGFYLDGSDTIVCDSNSTWDPPVPKCLKVL
In assay [6], B3 registered an AP-DAA of 7.2 fold.

B4: D2M2-4 (I134A) (protein)
chain: CEVPTRLNSASLKQPYITQNYFPVGTVVEYECRPGYRREPSLSPKLTCLQNLKWSTAVEFCKKKSCPYIRDPLNGQAVPANGTYEFGYQMHFICNEGYYLAGEEILYCELKGSVAIWSGKPPICEKVLCTPPPKIKNGKHTFSEVEVFEYLDAVTYSCDPAPGPDPFSLIGESTIYCGDNSVWSRAAPECKVVKCRFPVVENGKQISGFGKKFYYKATVMFECDKGFYLDGSDTIVCDSNSTWDPPVPKCLKVL
For the molecule B4, the AP-DAA in assay [6] is 6.7 fold. For the same molecule, the CP-DAA in assay [7] worked out at 2 fold.

B5: D2M2-4 (L161K) (protein)
chain: CEVPTRLNSASLKQPYITQNYFPVGTVVEYECRPGYRREPSLSPKLTCLQNLKWSTAVEFCKKKSCPYIRDPLNGQAVPANGTYEFGYQMHFICNEGYYLIGEEILYCELKGSVAIWSGKPPICEKVKCTPPPKIKNGKHTFSEVEVFEYLDAVTYSCDPAPGPDPFSLIGESTIYCGDNSVWSRAAPECKVVKCRFPVVENGKQISGFGKKFYYKATVMFECDKGFYLDGSDTIVCDSNSTWDPPVPKCLKVL
The molecule B5 returned an AP-DAA in assay [6] of 3.4 fold. Also, the CP-DAA in assay [7] was found to be 2 fold.

B6: D2M2-4 (E136Q) (D2) (protein)
chain: CEVPTRLNSASLKQPYITQNYFPVGTVVEYECRPGYRRQPSLSPKLTCLQNLKWSTAVEFCKKKSCPYIRDPLNGQAVPANGTYEFGYQMHFICNEGYYLIGEEILYCELKGSVAIWSGKPPICEKVLCTPPPKIKNGKHTFSEVEVFEYLDAVTYSCDPAPGPDPFSLIGESTIYCGDNSVWSRAAPECKVVKCRFPVVENGKQISGFGKKFYYKATVMFECDKGFYLDGSDTIVCDSNSTWDPPVPKCLKVL
In assay [6], B6 registered an AP-DAA of 5.6 fold.

These data come from patent US12662524B2.
